Source: the nanobody polyreactivity screen of Harvey et al. (2022)

Test: yeast display, Sf9 membrane polyspecificity reagent, FACS + sequencing; frameworks hold sequencing errors
Procedure, shortened: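 Using colony PCR, genes from sorted yeast display clones were amplified, then sequenced on MiSeq at 2 × 250 and filtered by CDR length. The clones had been stained with 10% biotinylated, detergent-solubilized Sf9 membrane reagent for 1 hour at 4 °C and sorted by FACS into low and high (top ~1%) gates on anti-HA and streptavidin fluorescence. Polyreactivity labels come from the gate of origin.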

Sequence | polyreactivity (PSR sort gate)
QVQLVESGGGLVQAGGSLRLSCAASGSIFRRNAMGWYRQAPGKERELVAVITRSGGSTYYADSVKGRFTISRDNAKTTVDLQMNSLKPEDTAVYYCDASRSSTRSFDYWGQGTQVTVSS | high polyreactivity
QVQLVESGAGLVQAGGSLRLSCAASGRIFHFYAMGWYRQAPGKERELVAAITSRTGNTYYADSVKGRFTISRDNAKNTVYLQMNSLKPEDTAVYYCAAKLVNALLHYRNWNHNNYWGQGTQVTVSS | low polyreactivity
QVQLVESGGGLVQAGGSLRLSCAASGSISQTYAMGWYRQAPGKERELVAAISSSGASTYYADSVKGRFTISRDNAKNTVYLQMNCLKPEDTAVYYCAALGRYRYIYNYWGQGTQVTVSS | high polyreactivity
QGQLVESGGGLVQAGGSLLLICAASGGTFLTYAMGWYRQAPGKERELVAAITSGGSTKYADSVKGRFTISRDNAKNTVYLQMNSLKPEDTAVYYCAADSVRDYVLWWAYSRSDYWGQGTQVTVSS | low polyreactivity
QFQLVESGGGLVQAGGSLRLSCAASGRIFLSYAMGWYRQAPGKERELVAAITLSGGSTYYADSVKGRFTISRDNAKNTVSLQMNSLKPEVTGVYYCAADAWFSLRYAPRSYAYGYWGQGTQVTVSS | low polyreactivity
QYQLVESGGGLVQAGGSLRLICAASGRIINKKAMGRYRHAPGKERELVAAITSSGGSTYYADSVKGRFTISRDNAKNTVYLQMNSLKPEDTAVYYCAAYAYGRFGKLNYWGQGTQVTVSS | low polyreactivity
QVQLVESGGGLVQAGGSLRLSCAASGSIFYAYARGWYRQAPGKERELVATISSVGSTYYADSVKGRFTISRDNAKHTVYLHMNSLKPEDTAVHYCAKQRIVVYKTGYDYWGQGTQVTVSS | low polyreactivity
QVQLVESGGGLVQAGGSLRLSCAASGRTFAWYAMGWYIEAPGKERELVAAISSGGSTYYADSVKGRFTISRDNAKNTVYLQMNSLKPEDTAVYYCATRYAIAGWVGYYYWGQCTQVTVSS | low polyreactivity
QVQLVESGGGLVQAGGSLRLSCAASGSTFGHYAMGWSRQAPGKERELVAAISWSGASTYYADSVKGRFTISRDNAKNTVYLQMNSLKPEDTAVYYCATVGPWPGEYDYWGQGTQVTVSS | low polyreactivity
QVQLVESGGGLVQAGGSLRLSCAASGRTFAVYAMGWYRQAPGKERELDAAITYGGGRTYYADSVKGRFTISRDNAKNTVYLQMYSLKPEDTAVYYCAADYYGTDYDYWGQGTQVTVSS | low polyreactivity
QVQLVESGGGLVQPGGSLRLSCAASGRISYVYTMGWYRQAPGKERELVAAISKSGGSTSYADSVKGRFTISRDNAKNTVYLQMNSLKPEDTAVYYCAAGRYYYTYAYDHWGQGTQVTLSS | high polyreactivity
QDQLVESGGGLVQAGGSLRLSCAASGSTFRPYAMGWSRQAPGKERELVAAITTGGSTNYADSVKGRFTISRDNAKNTVYLQMNSLKPEDTAVYYCNADYDVLNWGYYDWGYDYWGHGTQVTVSS | low polyreactivity
QVQIVESGGGLVQAGGSLRLSCAASGLTFIRYAMGWYRQAPGKERELVAAISTSGGRTYYADSVKGRFTISRDNAKNTVYLQMNSLKPEDTAVYYCAKYQSTGYTQSSYDYRGQGTQVTVSS | high polyreactivity
QVQLVESGGGLVHAGGSLRLSCAASGFIFPYYAMGWYRQAPGKERELVAAITSGGSTNYADSVKGRFTISRDNAKNTVYLQMNSLKPEDTAVYYCAKRLKRWSVYGRYDYWGQGTQVTVSS | high polyreactivity
QVQLVESGGGLVQAGGSLRLSCAASFYVYAMGWYRQAPGKERELVAAITYSGGGTYYADSVKGRFTISRDNAKNTVYLQMNSLKPEDTAVYYCAADDYFYDYDYWGQGTQVTVSS | low polyreactivity
QVQLVESGGGLVQAGGSLRLSSAASGSTFDYYAMGWYRQAPGKERELVAAISTSGSSTYYADSVKGRFTISGDNAKNTVYLQMNSLKPEDTAVYYCAAPIRYKGGYWGQGTQVTVSS | low polyreactivity

Sequence | polyreactivity (PSR sort gate)
QVQLVESGGGLVQAGGSLRLSCAASGRTNKSNTLGWYRQEPGKQMELVAAISWRVGSTYYADSVKGRFTISRDNAKNTVYLQMNSLKPEDTAVYYCAARPWGYTVGSNYRYYLYGYWGLGTQVTVSS | high polyreactivity
QVQLVESGGGLVQAGGSLRLSCAASGSTFSVYTMGWYRQAPGKERELVAAISRSGGRTYYADSVKGRFTISRDNAKNTVYLQMNSVKPDDTAVYYCATGYYGTYDYWGQGTQVTVSS | high polyreactivity
QVQLVESGGGLVQAGGSLRLSCAASGYIVYFNAMGWYRQAPGKERELVASIDSGGSTNYADSVKGRFTISRDNAKNTVYLQMNSLKPADTAVYYCAADKLYQPGIGDDYWGQGTQVTVSS | low polyreactivity
QVQLVESGGGLVQAGGSLRLSCAASGSIFNRYAMGCYRQATGKERELVAAINSRGGSTSYADSVKGRFTISRDIAKNTVYLQMNSLKPEDTAVYYCAADRGVNSYGYWGQGTQETVSS | high polyreactivity
QVQLVESGGGLVQAGGSLRLSCAASGRIFGNNVMGWYRQAPGKERELVASINYSGGSTYYADSVKGRFTISRDNAKNTVYLQMNSLKPEDTAVYYCARSYGWYPWRTSYTVGFYYWGQGTQVTVSS | high polyreactivity
QVQLVESGGGLVQAGGSLRLSCAASGSTFLYNRMGWYRQAPGKERELVAAISSVGSTYYADSVKGRFTISRDNAKNTVYLQMNSLKPEDSAVYYCAASYDWRAYRRDFYYWLTGDYWGQGTQVTVSS | low polyreactivity
QVQLVESGGGLVQAGGSLRLSCAASGRIFGGYAMGWYRQAPGKERELVAAITQSGGSTYYADSVKGRFTISRDNAKNTVYLQMNSLKPEDTAVYYCATYAWYIFGYWGQGTQVTVSS | low polyreactivity
QVQLVESGGGLVQAGGSLRLSCAASGSIFYQYGMGWYRQAPGKERELVAAITYDDDSTYYADSVKGRFTISRDNAKNTVYLQMNSLKPEDTAVYYCAAYYYKLEYDYWGQGTQVTVSS | high polyreactivity
QVQLVESGGGLVQAGGSLRLSCAASGSIFGRYAMGWYRQAPGKERELVAAITRSGVSTYYADSVKGRFTISRDNAKNTVYLQMNSLKPEDTAVYYCNAYYPIRSSPNGYYYWGQGTQVTVSS | high polyreactivity
QVQLVESGGGLVQAGGSLRLSCAASGRTFYSNAMGWYRPAPGKERELGATISSGGSTNYADSVKGRFTISRDTAKNTVYLQINSVKPADTAVYYCDTRPDRINDYWGQGTQVTVSS | low polyreactivity
QVQLVESGGGIVQAGGSLRLSCAASGSTFGYYAMGWYRQAPGKERELVAAISWRGGSTYYADSVKGRFTISRDNAKNTVYLQMNSLKPEDTAVYYCAAQRGGPFPRVVDLYDYWGQGTQVTVSS | low polyreactivity
QVQLVESGGGLVQAGGSLRLTCAASGSIFLDYAMGWYRQAPAKERELVAGITISGGSTYYADSVKGRFTISRDNAKNTVYLQMNSLKPEDTAVYYCAKVAPRSSSSQEYYYWGQGTQVTVSS | low polyreactivity
QVQLVESGGGLVQAGGSLRLSSAGSGSIFRVYALGWYRQAPGKERELVAVISIAGRTNYADSVKGRFTISRDNAKNTVYLQMNSLKPEDTAVYYCNAGGDGVATGYDYWGQGTQVTVSS | low polyreactivity
QVQLVESGGGLVQAGGSLRLSCAASGSTFFPYAMGWYRQAPGKERELVADITYSGASTYYADSVKGRFTISRDNAKNTVYLQMNSLKPEDTAVYYCAALVWYGYYSLGQGTQVTVSS | low polyreactivity
QVHLVESGGGLVQAGGSLRLSCAASGSTFRKYAMGWYRKAPGKERELDAAITSSGGRTYYADSVKGRFTISRDNAKNSVYLPLNSLKPEDTAVYYCAAGGPRFYSWRSEYDYWGQGTQVTVLS | high polyreactivity
QVQLVESGGGLVQAGGSLRLSCAASGFTLWLYAMGWSRQAPGKERALVATISYRGDSTYYADSVKGRFTISRDNAKNTVYLQMNSLNPEDTAVYYCARRYTHTGRYYYWGQGTQVTVSS | high polyreactivity
